As usually defined, the Km is the concentration of substrate that gives half-maximal velocity. For orientation: kcat means the number of substrate molecules converted per active site and unit of time at saturation.

The target of data set [1] is T1, TylM1 (Streptomyces fradiae, UniProt P95748).
T1 sequence (P95748 2-255): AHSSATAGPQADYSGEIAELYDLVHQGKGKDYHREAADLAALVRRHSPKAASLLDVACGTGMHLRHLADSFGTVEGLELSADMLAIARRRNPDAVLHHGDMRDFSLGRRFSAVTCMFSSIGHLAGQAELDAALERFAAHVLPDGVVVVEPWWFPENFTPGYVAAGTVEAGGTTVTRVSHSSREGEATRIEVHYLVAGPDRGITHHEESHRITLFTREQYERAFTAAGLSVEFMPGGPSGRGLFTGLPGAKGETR
Description: X-ray crystal structure, […] Å. The format is binding. To be noted: complex with SAH; active site.

For data set [2], the target named is T1, TylM1. Description: X-ray crystal structure, […] Å. The data set is classed as binding. To be noted: complex with SAH; active site. This is another data set of the same source.
Substrate in data set [3]: Cc1cn([C@H]2C[C@H](O)[C@@H](COP(=O)(O)OP(=O)(O)O[C@H]3O[C@H](C)[C@@H](O)[C@H](N)[C@H]3O)O2)c(=O)[nH]c1=O
Nature of the data set: purified protein. To be noted: methyl donor SAM.

Substrate in data set [4]: Cc1cn([C@H]2C[C@H](O)[C@@H](COP(=O)(O)OP(=O)(O)O[C@H]3O[C@H](C)[C@H](O)[C@H](N)[C@H]3O)O2)c(=O)[nH]c1=O
Nature of the data set: purified protein. To be noted: methyl donor SAM.

As for `Cc1cn([C@H]2C[C@H](O)[C@@H](COP(=O)(O)OP(=O)(O)O[C@H]3O[C@H](C)[C@@H](O)[C@H](N(C)C)[C@H]3O)O2)c(=O)[nH]c1=O` [dTDP-mycaminose], the “X-ray crystal structure, 1.6 Å” value at TylM1 [1] is listed as “The first structure determined for this investigation was that of TylM1 in complex with SAH”.

Take `CN[C@H]1[C@@H](O)[C@@H](C)O[C@H](OP(=O)(O)OP(=O)(O)OC[C@H]2O[C@@H](n3cc(C)c(=O)[nH]c3=O)C[C@@H]2O)[C@@H]1O` [dTDP-3-N-methylamino-3,6-dideoxygalactose]: on TylM1 [2], the “X-ray crystal structure, 2.2 Å” value is “enzyme in complex with SAH and dTDP-3-N-methylamino-3,6-dideoxygalactose”.

B1: TylM1 (Streptomyces fradiae) (protein)
chain: T1 sequence (P95748 2-255)
Turning to B1, in the data set “purified protein [3]”, the Km turned out to be 79 ± 15 µM and the kcat worked out at 0.75 ± 0.09 s⁻¹. Further, in the data set “purified protein [4]”, the Km stood at 1540 ± 80 µM and the kcat came to 0.61 ± 0.07 s⁻¹.

The record behind these values is paper PMC3985918 (Biochemistry, 2014).
